The labels stand for the following.
B1: Rab8a_(1-176) (human Rab8a G-domain) (domain or fragment, UniProt P61006 1-176, looked up)
chain: MAKTYDYLFKLLLIGDSGVGKTCVLFRFSEDAFNSTFISTIGIDFKIRTIELDGKRIKLQIWDTAGQERFRTITTAYYRGAMGIMLVYDITNEKSFDNIRNWIRNIEEHASADVEKMILGNKCDVNDKRQVSKERGEKLALDYGIKFMETSAKANINVENAFFTLARDIKAKMDKK
notes: Rab8a G-domain, human, residues 1-176; in the stopped-flow assays to the fluorescent mantGppNHp (non-covalent); also called GppNHp Rab8a_(1-176); Rab8a_(GppNHp); source: preparatively loaded with GppNHp or mantGppNHp
B2: EHBP1 bMERB domain lacking the N-terminal helix (helices 2-3) (domain or fragment)
chain: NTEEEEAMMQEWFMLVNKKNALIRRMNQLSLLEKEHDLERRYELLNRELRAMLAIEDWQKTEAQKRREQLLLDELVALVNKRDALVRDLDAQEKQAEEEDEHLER
B3: EHBP1 full-length bMERB domain F1120A (domain or fragment)
chain: not shown
notes: EHBP1 full-length bMERB domain, human, residues 1060-1212 as the wild-type construct; numbers on isoform 1 (Q8NDI1-1); also called bMERB_(F1120A); source: E. coli BL21 DE3-RIL, purified
B4: EHBP1 full-length bMERB domain M1116A (domain or fragment)
chain: not shown
notes: EHBP1 full-length bMERB domain, human, residues 1060-1212 as the wild-type construct; numbers on isoform 1 (Q8NDI1-1); also called bMERB_(M1116A); source: E. coli BL21 DE3-RIL, purified
B5: EHBP1 bMERB domain Q1176A (domain or fragment)
chain: not shown
notes: EHBP1 bMERB domain, human, residues 1060-1212 as the wild-type construct; numbers on isoform 1 (Q8NDI1-1); source: E. coli BL21 DE3-RIL, purified
B6: EHBP1 bMERB domain (bMERB_(1060-1212), full-length bMERB domain) (domain or fragment)
chain: not shown
notes: EHBP1 bMERB domain, human, residues 1060-1212, all three predicted helices; PDB 6ZSI and 6ZSJ hold the M1116A and F1120A mutants of the full-length bMERB domain; also called bMERB^EHBP1; full-length construct
B7: EHBP1 CH (calponin homology) domain (domain or fragment, human)
chain: GRKPNASQSLLVWCKEVTKNYRGVKITNFTTSWRNGLSFCAILHHFRPDLIDYKSLNPQDIKENNKKAYDGFASIGISRLLEPSDMVLLAIPDKLTVMTYLYQIRAHFSGQ
notes: EHBP1 central CH domain, human; also called CH domain; CH^EHBP1
B8: Cy3 labeled EHBP1 CH domain (domain or fragment, human)
chain: B7 chain
modifications: Cy3 on the N-terminus
notes: EHBP1 central CH domain, human; also called Cy3-CH; source: E. coli BL21 DE3-RIL, purified; labelled with Cy3-thioester
B9: EHBP1 CH domain D532A (domain or fragment, human)
chain: B7 chain with D93A
notes: EHBP1 CH domain, human; numbers on isoform 1 (Q8NDI1-1); source: E. coli BL21 DE3-RIL, purified
B10: EHBP1 bMERB_(H1-2) (bMERB domain lacking the C-terminal helix) (domain or fragment)
chain: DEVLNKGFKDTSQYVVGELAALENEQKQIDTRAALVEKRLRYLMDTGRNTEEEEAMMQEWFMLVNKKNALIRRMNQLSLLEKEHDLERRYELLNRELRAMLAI

Settings in all cases: both partners purified
Test [1] has as its target T1, EHBP1 bMERB domain L1156S (human, UniProt Q8NDI1-1 1060-1212, L1156S).
T1 construct: EHBP1 bMERB domain, human, residues 1060-1212 as the wild-type construct; numbers on isoform 1 (Q8NDI1-1); source: E. coli BL21 DE3-RIL, purified
Put plainly: ITC; 500 µM GppNHp Rab titrated into 50 µM bMERB domain; 20 mM Hepes 7.5, 50 mM NaCl, 1 mM MgCl2, 1 mM TCEP; 25 °C; one-site-binding model.

For test [2], the target named is T2, EHBP1 bMERB domain L1179S (human, UniProt Q8NDI1-1 1060-1212, L1179S).
T2 construct: EHBP1 bMERB domain, human, residues 1060-1212 as the wild-type construct; numbers on isoform 1 (Q8NDI1-1); source: E. coli BL21 DE3-RIL, purified
T2 sequence (Q8NDI1 1060-1212 L1179S): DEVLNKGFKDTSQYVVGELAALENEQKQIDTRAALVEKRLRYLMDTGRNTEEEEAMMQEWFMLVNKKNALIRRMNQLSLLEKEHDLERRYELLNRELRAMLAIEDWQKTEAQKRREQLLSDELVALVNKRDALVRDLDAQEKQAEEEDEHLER
Described as above.

Test [3] has as its target T3, EHBP1 bMERB domain L1182S (human, UniProt Q8NDI1-1 1060-1212, L1182S).
T3 construct: EHBP1 bMERB domain, human, residues 1060-1212 as the wild-type construct; numbers on isoform 1 (Q8NDI1-1); source: E. coli BL21 DE3-RIL, purified
The description is as above.

For test [4], the target named is T4, EHBP1 bMERB domain V1186A (human, UniProt Q8NDI1-1 1060-1212, V1186A).
T4 construct: EHBP1 bMERB domain, human, residues 1060-1212 as the wild-type construct; numbers on isoform 1 (Q8NDI1-1); source: E. coli BL21 DE3-RIL, purified
T4 sequence (Q8NDI1 1060-1212 V1186A): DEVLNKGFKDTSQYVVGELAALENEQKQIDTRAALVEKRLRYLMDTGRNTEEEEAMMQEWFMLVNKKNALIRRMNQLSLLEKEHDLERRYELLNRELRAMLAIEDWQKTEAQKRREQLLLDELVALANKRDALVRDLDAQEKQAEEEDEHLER
Described as above.

For test [5], the target named is T5, EHBP1 bMERB domain N1187A (human, UniProt Q8NDI1-1 1060-1212, N1187A).
T5 construct: EHBP1 bMERB domain, human, residues 1060-1212 as the wild-type construct; numbers on isoform 1 (Q8NDI1-1); source: E. coli BL21 DE3-RIL, purified
T5 sequence (Q8NDI1 1060-1212 N1187A): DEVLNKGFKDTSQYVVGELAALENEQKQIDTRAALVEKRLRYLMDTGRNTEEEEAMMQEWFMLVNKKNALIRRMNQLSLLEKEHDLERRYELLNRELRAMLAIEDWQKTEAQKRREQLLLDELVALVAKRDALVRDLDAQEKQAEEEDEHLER
Described as above.

Test [6] has as its target T6, EHBP1 bMERB domain R1189A (human, UniProt Q8NDI1-1 1060-1212, R1189A).
T6 construct: EHBP1 bMERB domain, human, residues 1060-1212 as the wild-type construct; numbers on isoform 1 (Q8NDI1-1); source: E. coli BL21 DE3-RIL, purified
The test is described as above.

Test [7] has as its target B1. Described as above.
Test [8] has as its target B1. As to the kind of experiment: crystal structure; sitting-drop vapor diffusion, 20 °C; 300–400 µM 1:1 complexes.
In test [9] the target is T7, Rab8a_(1-176_T72E) (phosphomimetic Rab8a) (human, UniProt P61006 1-176, T72E).
T7 construct: Rab8a G-domain, human, residues 1-176, phosphomimetic switch II mutant; also called Rab8a_(T72E)
T7 sequence (looked up): B1 chain with T72E
Put plainly: ITC; 500 µM GppNHp Rab titrated into 50 µM bMERB domain; 20 mM Hepes 7.5, 50 mM NaCl, 1 mM MgCl2, 1 mM TCEP; 25 °C; one-site-binding model.

Test [10] deals with T8, Rab10_(1-175) (human Rab10 G-domain) (human, UniProt P61026 1-175).
T8 construct: Rab10 G-domain, human, residues 1-175
T8 sequence (looked up): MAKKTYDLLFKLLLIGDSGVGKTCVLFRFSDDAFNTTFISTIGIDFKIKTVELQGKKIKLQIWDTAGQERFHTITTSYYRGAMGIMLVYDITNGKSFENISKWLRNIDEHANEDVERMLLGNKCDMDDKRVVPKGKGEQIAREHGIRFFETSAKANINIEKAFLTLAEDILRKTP
The test is described as above.

Test [11] has as its target T9, Rab10_(1-175_T73E) (phosphomimetic Rab10) (human, UniProt P61026 1-175, T73E).
T9 construct: Rab10 G-domain, human, residues 1-175, phosphomimetic switch II mutant; also called Rab10_(T73E); 10_(T73E)
T9 sequence (looked up): T8 sequence (looked up) with T73E
As to the kind of experiment: SEC; analytical SEC, Superdex 75 10/300 GL; 110 µM bMERB domain mixed with 121 µM GppNHp Rab (1:1.1); 20 mM Hepes 7.5, 50 mM NaCl, 1 mM MgCl2, 2 mM DTE; room temperature.

Test [12] addresses B1. As to the kind of experiment: stopped-flow fluorescence kinetics; association: 0.5 µM mantGppNHp Rab8a_(1-176) with 1.5–8 µM bMERB domain, pseudo first order; koff from the y-axis intercept; Rab buffer, 25 °C.
The target in test [13] is B1. Put plainly: stopped-flow fluorescence kinetics; dissociation: complex of mantGppNHp Rab8a_(1-176) with the bMERB domain (2 µM) mixed with a 20-fold excess of unlabeled GppNHp Rab8a_(1-176); 25 °C.
The target of test [14] is B6. As to the kind of experiment: ITC; 600–800 µM CH domain titrated into 40–60 µM bMERB domain; 20 mM Hepes 7.5, 150 mM NaCl, 1 mM TCEP; 25 °C; one-site-binding model.
Test [15] has as its target F-actin (rabbit skeletal muscle actin, polymerized) (rabbit, UniProt P68135 1-377). As to the kind of experiment: co-sedimentation; 10 µM F-actin with 0–60 µM EHBP1 CH domain, 1 h RT; 5 mM Tris-HCl pH 7.5, 0.18 mM CaCl2, 15 mM KCl, 1 mM DTT, 1.8 mM NaN3; 100,000 g 1 h 4 °C; densitometry of SDS-PAGE.
Test [16] concerns the target B6. Put plainly: stopped-flow fluorescence kinetics; association: 0.5 µM Cy3 labeled CH domain with 2–16 µM full-length bMERB domain; koff from the y-axis intercept; CH buffer, 25 °C.
Test [17] has as its target B6. As to the kind of experiment: stopped-flow fluorescence kinetics; dissociation: complex of Cy3 labeled CH with full-length bMERB domain (2 µM) mixed with a 20-fold excess of unlabeled CH domain; CH buffer.
Test [18] deals with B7. As to the kind of experiment: ITC; 600–800 µM CH domain titrated into 40–60 µM bMERB domain; 20 mM Hepes 7.5, 150 mM NaCl, 1 mM TCEP; 25 °C; one-site-binding model.

Where a chain is given by its changes, count along the chain named. Names and notes keep the numbering of the source.

T1 sequence (Q8NDI1 1060-1212 L1156S): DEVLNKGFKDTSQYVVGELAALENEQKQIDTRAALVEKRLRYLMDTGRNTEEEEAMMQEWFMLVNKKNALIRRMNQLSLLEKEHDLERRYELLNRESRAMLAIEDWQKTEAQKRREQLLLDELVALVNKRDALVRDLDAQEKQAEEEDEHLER
T3 sequence (Q8NDI1 1060-1212 L1182S): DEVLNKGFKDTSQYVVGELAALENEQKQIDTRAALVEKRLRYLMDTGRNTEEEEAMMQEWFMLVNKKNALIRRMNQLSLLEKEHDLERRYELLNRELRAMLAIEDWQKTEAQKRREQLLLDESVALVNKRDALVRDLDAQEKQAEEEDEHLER
T6 sequence (Q8NDI1 1060-1212 R1189A): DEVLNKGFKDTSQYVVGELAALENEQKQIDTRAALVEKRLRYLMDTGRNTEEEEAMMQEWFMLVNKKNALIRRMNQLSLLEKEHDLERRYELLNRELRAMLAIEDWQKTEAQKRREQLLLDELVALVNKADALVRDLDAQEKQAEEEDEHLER

As to B1, the “fold reduction in affinity against the wild-type bMERB domain” value in test [1] is 47 fold. In addition, the “fold decrease in binding affinity against the wild-type bMERB domain” value in test [2] and in test [3] was 10 fold throughout. The “fold reduction in binding affinity against the wild-type bMERB domain” value is more than 30 fold in test [4], 5 fold in test [5] and 20 fold in [6].
B2: the Kd in [7] came to 300 nM.
For B3, the binding result in [8] was “binds”.
Consider B4, for which the binding result in [8] is “binds”.
Regarding B5, in test [7], the binding result is on record as “binds”.
Consider B6, for which the Kd was 310 nM in [7] and 480 nM in [12]. Also, the binding result in [9], in test [10] and in test [11] was “binds” each time. Further, the koff amounted to 13.4 s⁻¹ in test [12] and 13.8 s⁻¹ in [13]. Besides, the on-rate (kon) in [12] came out at 2.79e+07 M⁻¹ s⁻¹.
B7: the Kd amounted to 1200 nM in test [14] and 9340 ± 1860 nM in [15]. In addition, the “stoichiometry N” value in test [14] turned out to be 1.
Regarding B8, in [16], the Kd lay in the range of 3750 to 4230 nM, the koff was found to be 104 s⁻¹ and the kon amounted to 2.76e+07 M⁻¹ s⁻¹. This molecule came in with an off-rate (koff) in test [17] of 117 s⁻¹.
Consider B9, for which the “fold reduction in binding affinity against the wild-type CH domain” value in [14] is more than 40 fold.
Molecule B10 registered a Kd in test [18] of 780 nM.

The values are drawn from article PMC7442826, “The mechanism of activation of the actin binding protein EHBP1 by Rab8 family members” (Nature Communications, 2020).
